Measurements published in patent publication US20230103631A1, “PEPTIDES AS SELECTIVE GIP RECEPTOR AGONISTS” (Sanofi, priority 2020, published 2023).
*1 amine or outer side, *2 acyl side, *3 side chain or, on linkers, in order; H or OH if unused. Where no end group is shown, it is not given here. Side-chain parts run from the residue outwards. [ ]: non-standard residue; d: D form. The star is where a group is joined. C20 diacid = O=C(O)CCCCCCCCCCCCCCCCCCC(=O)*; C18 diacid = O=C(O)CCCCCCCCCCCCCCCCC(=O)*; γGlu = O=C(O)[C@H](CCC(=O)[*:2])N[*:1]; NMeY = CN[C@@H](Cc1ccc(O)cc1)C(=O)O; AEEA = NCCOCCOCC(=O)O; Aib = CC(C)(N)C(=O)O; Sar = CNCC(=O)O

T1: human GIP receptor (human, UniProt P48546 22-466)
T1 sequence (looked up): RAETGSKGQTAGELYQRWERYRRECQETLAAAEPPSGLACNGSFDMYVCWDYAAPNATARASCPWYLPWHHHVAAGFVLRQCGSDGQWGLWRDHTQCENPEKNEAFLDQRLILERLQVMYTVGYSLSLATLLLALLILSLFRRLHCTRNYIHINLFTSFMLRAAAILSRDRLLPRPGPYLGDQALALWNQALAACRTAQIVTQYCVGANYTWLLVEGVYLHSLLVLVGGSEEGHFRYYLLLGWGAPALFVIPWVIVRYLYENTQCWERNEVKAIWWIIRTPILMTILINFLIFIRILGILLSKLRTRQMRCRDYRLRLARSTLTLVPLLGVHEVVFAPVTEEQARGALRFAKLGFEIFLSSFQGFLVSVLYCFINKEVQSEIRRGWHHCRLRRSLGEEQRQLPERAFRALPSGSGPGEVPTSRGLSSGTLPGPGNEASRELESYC


Assays:
[1] = target: T1, human GIP receptor; assay: cell-based or functional assay
[2] = target: T2, human GLP-1 receptor (human, UniProt P43220 24-463); assay: cell-based or functional assay
[3] = target: T1, human GIP receptor; assay: cell-based or functional assay; remark: listed apart in the source
[4] = target: T2, human GLP-1 receptor; assay: displacement of [125I]GLP-1 from hGLP-1R HEK-293 membranes, SPA

Binder | EC50 hGIPR 0% HSA, cAMP in HEK-293 cells [1] | EC50 hGIPR 0.1% HSA, cAMP in HEK-293 cells [1] | EC50 hGLP-1R 0% HSA, cAMP in HEK-293 cells [2] | hGIPR EC50, cAMP in human adipocytes [3] | hGIPR Emax, cAMP in human adipocytes [3] | IC50 [4]
Y[Aib]EGTFISDLSI[Aib]K([Gly-Gly-Gly-γGlu-C18 diacid])DRIHQ[Aib]EFIEWLLAQGPSSGAPPPS-NH2 (N-terminus assumed; SMILES CC[C@H](C)[C@H](NC(=O)[C@H](CCCNC(=N)N)NC(=O)[C@H](CC(=O)O)NC(=O)[C@H](CCCCNC(=O)CNC(=O)CNC(=O)CNC(=O)CC[C@H](NC(=O)CCCCCCCCCCCCCCCCC(=O)O)C(=O)O)NC(=O)C(C)(C)NC(=O)[C@@H](NC(=O)[C@H](CO)NC(=O)[C@H](CC(C)C)NC(=O)[C@H](CC(=O)O)NC(=O)[C@H](CO)NC(=O)[C@@H](NC(=O)[C@H](Cc1ccccc1)NC(=O)[C@@H](NC(=O)CNC(=O)[C@H](CCC(=O)O)NC(=O)C(C)(C)NC(=O)[C@@H](N)Cc1ccc(O)cc1)[C@@H](C)O)[C@@H](C)CC)[C@@H](C)CC)C(=O)N[C@@H](Cc1c[nH]cn1)C(=O)N[C@@H](CCC(N)=O)C(=O)NC(C)(C)C(=O)N[C@@H](CCC(=O)O)C(=O)N[C@@H](Cc1ccccc1)C(=O)N[C@H](C(=O)N[C@@H](CCC(=O)O)C(=O)N[C@@H](Cc1c[nH]c2ccccc12)C(=O)N[C@@H](CC(C)C)C(=O)N[C@@H](CC(C)C)C(=O)N[C@@H](C)C(=O)N[C@@H](CCC(N)=O)C(=O)NCC(=O)N1CCC[C@H]1C(=O)N[C@@H](CO)C(=O)N[C@@H](CO)C(=O)NCC(=O)N[C@@H](C)C(=O)N1CCC[C@H]1C(=O)N1CCC[C@H]1C(=O)N1CCC[C@H]1C(=O)N[C@@H](CO)C(N)=O)[C@@H](C)CC, Exendin-4 derived synthetic lipidated peptide of formula I) [SEQ ID NO: 5] | 0.00016 nM | 0.00175 nM | > 10 nM | 0.5 nM | 137% | 145 nM
Y[Aib]EGTFISDLSI[Aib]K([Sar-Sar-Sar-γGlu-C18 diacid])DRIHQ[Aib]EFIEWLLAQGPSSGAPPPS-NH2 (N-terminus assumed; SMILES CC[C@H](C)[C@H](NC(=O)[C@H](CCCNC(=N)N)NC(=O)[C@H](CC(=O)O)NC(=O)[C@H](CCCCNC(=O)CN(C)C(=O)CN(C)C(=O)CN(C)C(=O)CC[C@H](NC(=O)CCCCCCCCCCCCCCCCC(=O)O)C(=O)O)NC(=O)C(C)(C)NC(=O)[C@@H](NC(=O)[C@H](CO)NC(=O)[C@H](CC(C)C)NC(=O)[C@H](CC(=O)O)NC(=O)[C@H](CO)NC(=O)[C@@H](NC(=O)[C@H](Cc1ccccc1)NC(=O)[C@@H](NC(=O)CNC(=O)[C@H](CCC(=O)O)NC(=O)C(C)(C)NC(=O)[C@@H](N)Cc1ccc(O)cc1)[C@@H](C)O)[C@@H](C)CC)[C@@H](C)CC)C(=O)N[C@@H](Cc1c[nH]cn1)C(=O)N[C@@H](CCC(N)=O)C(=O)NC(C)(C)C(=O)N[C@@H](CCC(=O)O)C(=O)N[C@@H](Cc1ccccc1)C(=O)N[C@H](C(=O)N[C@@H](CCC(=O)O)C(=O)N[C@@H](Cc1c[nH]c2ccccc12)C(=O)N[C@@H](CC(C)C)C(=O)N[C@@H](CC(C)C)C(=O)N[C@@H](C)C(=O)N[C@@H](CCC(N)=O)C(=O)NCC(=O)N1CCC[C@H]1C(=O)N[C@@H](CO)C(=O)N[C@@H](CO)C(=O)NCC(=O)N[C@@H](C)C(=O)N1CCC[C@H]1C(=O)N1CCC[C@H]1C(=O)N1CCC[C@H]1C(=O)N[C@@H](CO)C(N)=O)[C@@H](C)CC, Exendin-4 derived synthetic lipidated peptide of formula I) [SEQ ID NO: 6] | 0.00017 nM | 0.00105 nM | > 10 nM | 0.3 nM | 112% | 173 nM
Y[Aib]EGTFISDLSI[Aib]K([AEEA-AEEA-γGlu-C20 diacid])DRIHQEEFIEWLLAQGPSSGAPPPS-NH2 (N-terminus assumed; SMILES CC[C@H](C)[C@H](NC(=O)[C@H](Cc1ccccc1)NC(=O)[C@H](CCC(=O)O)NC(=O)[C@H](CCC(=O)O)NC(=O)[C@H](CCC(N)=O)NC(=O)[C@H](Cc1c[nH]cn1)NC(=O)[C@@H](NC(=O)[C@H](CCCNC(=N)N)NC(=O)[C@H](CC(=O)O)NC(=O)[C@H](CCCCNC(=O)COCCOCCNC(=O)COCCOCCNC(=O)CC[C@H](NC(=O)CCCCCCCCCCCCCCCCCCC(=O)O)C(=O)O)NC(=O)C(C)(C)NC(=O)[C@@H](NC(=O)[C@H](CO)NC(=O)[C@H](CC(C)C)NC(=O)[C@H](CC(=O)O)NC(=O)[C@H](CO)NC(=O)[C@@H](NC(=O)[C@H](Cc1ccccc1)NC(=O)[C@@H](NC(=O)CNC(=O)[C@H](CCC(=O)O)NC(=O)C(C)(C)NC(=O)[C@@H](N)Cc1ccc(O)cc1)[C@@H](C)O)[C@@H](C)CC)[C@@H](C)CC)[C@@H](C)CC)C(=O)N[C@@H](CCC(=O)O)C(=O)N[C@@H](Cc1c[nH]c2ccccc12)C(=O)N[C@@H](CC(C)C)C(=O)N[C@@H](CC(C)C)C(=O)N[C@@H](C)C(=O)N[C@@H](CCC(N)=O)C(=O)NCC(=O)N1CCC[C@H]1C(=O)N[C@@H](CO)C(=O)N[C@@H](CO)C(=O)NCC(=O)N[C@@H](C)C(=O)N1CCC[C@H]1C(=O)N1CCC[C@H]1C(=O)N1CCC[C@H]1C(=O)N[C@@H](CO)C(N)=O, Exendin-4 derived synthetic lipidated peptide of formula I) [SEQ ID NO: 10] | 0.00025 nM | 0.00537 nM | > 10 nM | 0.4 nM | 127% | 223 nM
[NMeY][Aib]EGTFISDLSI[Aib]K([AEEA-AEEA-γGlu-C18 diacid])DRIHQ[Aib]EFIEWLLAQGPSSGAPPPS-NH2 (N-terminus assumed; SMILES CC[C@H](C)[C@H](NC(=O)[C@H](CCCNC(=N)N)NC(=O)[C@H](CC(=O)O)NC(=O)[C@H](CCCCNC(=O)COCCOCCNC(=O)COCCOCCNC(=O)CC[C@H](NC(=O)CCCCCCCCCCCCCCCCC(=O)O)C(=O)O)NC(=O)C(C)(C)NC(=O)[C@@H](NC(=O)[C@H](CO)NC(=O)[C@H](CC(C)C)NC(=O)[C@H](CC(=O)O)NC(=O)[C@H](CO)NC(=O)[C@@H](NC(=O)[C@H](Cc1ccccc1)NC(=O)[C@@H](NC(=O)CNC(=O)[C@H](CCC(=O)O)NC(=O)C(C)(C)NC(=O)[C@H](Cc1ccc(O)cc1)NC)[C@@H](C)O)[C@@H](C)CC)[C@@H](C)CC)C(=O)N[C@@H](Cc1c[nH]cn1)C(=O)N[C@@H](CCC(N)=O)C(=O)NC(C)(C)C(=O)N[C@@H](CCC(=O)O)C(=O)N[C@@H](Cc1ccccc1)C(=O)N[C@H](C(=O)N[C@@H](CCC(=O)O)C(=O)N[C@@H](Cc1c[nH]c2ccccc12)C(=O)N[C@@H](CC(C)C)C(=O)N[C@@H](CC(C)C)C(=O)N[C@@H](C)C(=O)N[C@@H](CCC(N)=O)C(=O)NCC(=O)N1CCC[C@H]1C(=O)N[C@@H](CO)C(=O)N[C@@H](CO)C(=O)NCC(=O)N[C@@H](C)C(=O)N1CCC[C@H]1C(=O)N1CCC[C@H]1C(=O)N1CCC[C@H]1C(=O)N[C@@H](CO)C(N)=O)[C@@H](C)CC, Exendin-4 derived synthetic lipidated peptide of formula I) [SEQ ID NO: 8] | 0.00019 nM | 0.00137 nM | > 10 nM | 0.5 nM | 116% | 186 nM
Y[Aib]EGTFISDLSI[Aib]K([AEEA-AEEA-γGlu-C18 diacid])DRIHQEEFIEWLLAQGPSSGAPPPS-OH (N-terminus assumed; SMILES CC[C@H](C)[C@H](NC(=O)[C@H](Cc1ccccc1)NC(=O)[C@H](CCC(=O)O)NC(=O)[C@H](CCC(=O)O)NC(=O)[C@H](CCC(N)=O)NC(=O)[C@H](Cc1c[nH]cn1)NC(=O)[C@@H](NC(=O)[C@H](CCCNC(=N)N)NC(=O)[C@H](CC(=O)O)NC(=O)[C@H](CCCCNC(=O)COCCOCCNC(=O)COCCOCCNC(=O)CC[C@H](NC(=O)CCCCCCCCCCCCCCCCC(=O)O)C(=O)O)NC(=O)C(C)(C)NC(=O)[C@@H](NC(=O)[C@H](CO)NC(=O)[C@H](CC(C)C)NC(=O)[C@H](CC(=O)O)NC(=O)[C@H](CO)NC(=O)[C@@H](NC(=O)[C@H](Cc1ccccc1)NC(=O)[C@@H](NC(=O)CNC(=O)[C@H](CCC(=O)O)NC(=O)C(C)(C)NC(=O)[C@@H](N)Cc1ccc(O)cc1)[C@@H](C)O)[C@@H](C)CC)[C@@H](C)CC)[C@@H](C)CC)C(=O)N[C@@H](CCC(=O)O)C(=O)N[C@@H](Cc1c[nH]c2ccccc12)C(=O)N[C@@H](CC(C)C)C(=O)N[C@@H](CC(C)C)C(=O)N[C@@H](C)C(=O)N[C@@H](CCC(N)=O)C(=O)NCC(=O)N1CCC[C@H]1C(=O)N[C@@H](CO)C(=O)N[C@@H](CO)C(=O)NCC(=O)N[C@@H](C)C(=O)N1CCC[C@H]1C(=O)N1CCC[C@H]1C(=O)N1CCC[C@H]1C(=O)N[C@@H](CO)C(=O)O, Exendin-4 derived synthetic lipidated peptide of formula I) [SEQ ID NO: 11] | 0.00019 nM | 0.00224 nM | > 10 nM | 1 nM | 122% | 288 nM
